# B1: FLAG-tagged murine receptor transporter protein 4 (FLAG-mmRTP4) (natural protein)
# chain: MLFPDDFSTWEQTFQELMQEEKPGAKWSLHLDKNIVPDGAALGWRQHQQTVLGRFQCSRCCRSWTSAQVMILCHMYPDTLKSQGQARMRIFGQKCQKCFGCQFETPKFSTEIIKRILNNLVNYILQRYYGHRKIALTSNASLGEKVTLDGPHDTRNCEACSLNSHGRCALAHKVKPPRSPSPLPKSSSPSKSCPPPPQTRNTDFGNKTFQDFGNRTFQGCREPPQREIEPPLFLFLSIAAFALFSLFTR
# notes: Receptor transporter protein 4 (RTP4), mouse; also called mouse RTP4; murine RTP4; source: Huh7-Lunet cells, lentivirally transduced (pLVX), HCV-infected, in fixed cells; not shown: FLAG, N-terminal, kept
# Target: T1, HCV NS5A protein (hepatitis C virus J6/JFH1-Jc1, UniProt Q99IB8 1977-2442)
# T1 construct: NS5A, cut product of the polyprotein of hepatitis C virus J6/JFH1 (Jc1) chimeric genome; Untagged viral protein, detected with the mouse anti-NS5A antibody 9E10 (a tool); NS5A is a stretch of it; source: made by HCV J6/JFH1-Jc1 infection (MOI of 1) of Huh7-Lunet cells, in fixed cells
# T1 sequence: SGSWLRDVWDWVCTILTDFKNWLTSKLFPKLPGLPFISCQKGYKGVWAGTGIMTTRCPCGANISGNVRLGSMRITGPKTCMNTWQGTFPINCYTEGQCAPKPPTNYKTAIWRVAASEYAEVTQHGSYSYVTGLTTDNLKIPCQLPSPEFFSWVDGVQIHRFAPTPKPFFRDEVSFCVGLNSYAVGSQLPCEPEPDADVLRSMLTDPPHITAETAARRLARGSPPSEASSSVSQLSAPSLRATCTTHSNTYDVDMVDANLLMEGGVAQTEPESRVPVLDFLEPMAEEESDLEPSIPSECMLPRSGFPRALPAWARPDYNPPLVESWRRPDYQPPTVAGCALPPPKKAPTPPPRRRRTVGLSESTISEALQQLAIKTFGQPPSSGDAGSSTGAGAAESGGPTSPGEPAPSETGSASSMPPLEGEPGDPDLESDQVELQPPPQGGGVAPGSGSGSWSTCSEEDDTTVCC
# Assay: proximity ligation; in situ PLA (Duolink In Situ Detection Reagents Green) in Huh7-Lunet cells infected with HCV J6/JFH1-Jc1 at MOI 1, transduced with FLAG-mmRTP4 or FLAG-hsRTP4 lentivirus, fixed in methanol 48 h post-transduction; Anti-Rabbit MINUS and Anti-Mouse PLUS probes; foci counted in 10 images per sample
# Conditions: partners not purified
binder,measurement,value
B1,frequency of PLA foci relative to FLAG-hsRTP4 with NS5A,2 fold

# Reference: PMC12431671, “Receptor transporter protein 4 (RTP4)-mediated repression of hepatitis C virus replication in mouse cells” (PLOS Pathogens, 2025)
